Data taken from US11472844B2, “Peptidomimetics, method of synthesis and uses thereof” (priority 2017, dated 2022).
Where two headings read alike, the source gives them in different places.

B1: MUB70-Cy5: MUB70 (SEQ ID NO: 11) conjugated to Cy5 (conjugate, listed as Lactobacillus reuteri)
chain: VHVQYIDGETDQMLRQDDLDGYTDETIPYSTAEGIKKFEGDGYELFKDNFPAGEKFDNDDTNDQFYTVIF
modifications: also: conjugated to Cy5 (site not given here)
B2: MUB70: 70 AA peptidic marker of human colonic mucus from L. reuteri MUcus Binding Associated Domains (peptide, listed as Lactobacillus reuteri)
chain: B1 chain

Tests used:
[1] = Analytical gel filtration (size exclusion chromatography); type: physicochemical; details: for relative masses estimated from standard proteins' elution volume: 10 μg/ml in 20 mM phosphate buffer; for relative masses estimated from standard proteins' elution volume / experimental Mr: 150 mM NaCl, pH7.4; for experimental Mr: 20 mM phosphate buffer; for oligomeric organization: phosphate buffer, vs theoretical MW
Experimental: Size Exclusion Chromatography. Gel filtration was performed using an Agilent 1100 system (Agilent Technologies; Palo Alto, Calif., USA) and monitored by absorbance at 280 nm. MUB40 peptides were solubilized in the gel filtration buffer (20 mM phosphate buffer, 150 mM NaCl, pH7.4) at a concentration of 10 μg/ml, 100 μg/ml, or 1 mg/ml), separately injected on a Yarra™ 3μ SEC-2000 300×7.8 mm column (Phenomenex, Le Pecq, France), and eluted at a 0.5 ml/min flow rate. The column was calibrated with a mixture of standards proteins (ribonuclease A, 13.7 kDa; carbonic anhydrase 29 kDa; ovalbumin 44 kDa; GE Healthcare) complemented with a custom synthetic peptide of our own library (peptide x, 5.1 kDa; Institut Pasteur). The logarithm of the molecular weights were plotted versus the corresponding partition coefficients (Kay=(Ve−Vo)/(Vc−Vo); Ve, elution volume; Vo, void volume; Vc, geometric column volume), giving log(Mr)=2,3108−2,2361Kav as a calibration curve equation.

[2] = molecular target: trypsin (Sus scrofa, UniProt P00761); details: trypsin digestion, 37°C, pH8, followed up to 24 h
Sequence of trypsin (P00761 9-231): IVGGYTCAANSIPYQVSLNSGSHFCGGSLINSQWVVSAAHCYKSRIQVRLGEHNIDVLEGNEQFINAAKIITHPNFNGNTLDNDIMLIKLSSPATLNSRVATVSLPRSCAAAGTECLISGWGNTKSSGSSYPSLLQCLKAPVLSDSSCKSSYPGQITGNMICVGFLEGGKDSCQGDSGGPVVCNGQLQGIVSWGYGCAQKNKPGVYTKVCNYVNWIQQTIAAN
Experimental: Trypsin proteolysis. MUB40 (SEQ ID NO: 3)-Cy5 and RI-MUB40 (SEQ ID NO: 2)-Cy5 were dissolved in 50 mM ammonium bicarbonate, pH 8. Prior to digestion and owing to the propensity of maleimide derivatives to undergo ring-opening in a basic environment (Fontaine et al., 2015), we incubated both peptides at 37° C. overnight. Ring-opening completion was checked before trypsin addition. […] Lyophilized trypsin (Thermo scientific) was reconstituted using 50 mM acetic acid, diluted with 50 mM ammonium bicarbonate and added to the peptide solution so as to obtain a final peptide concentration of 0.25 mg/mL and a protease to protein ratio of 1:20 (w/w). Samples were directly incubated on the injection sampler thermostated at 37° c. HPLC and LC-MS analyses were performed as previously described above, applying a 15% to 40% linear gradient of acetonitrile in 10 mM ammonium acetate over 20 minutes.
Hydrolysis experiments were done in solution at 37° c., pH8 and monitored by HPLC by measuring the peak area of the remaining intact peptides.

[3] = system: colonic mucinous carcinoma; test: Mucinous carcinoma immunofluorescent staining; set-up: species or system human; details: together with anti-Muc2 antibody, 1 μg/mL
Experimental: FIG. 3. Mucinous carcinoma immunofluorescent staining with MUB40 #1 (SEQ ID NO: 3)-Cy5 (MUB40-Cy5) and anti-Muc2 antibody (with a secondary antibody conjugated with FITC).
Muc2 was stained with an anti-Mucin2 antibody (green). Tissue was additionally stained with MUB40-Cy5 (1 μg/mL, magenta). DNA was stained with Dapi (blue).

[4] = system: human colonic mucus; test: Fluorescent labelling of human colonic mucus layer; type: binding; details: 1 μg/mL
Experimental: (§1) Colon explant surgical collection. In summary, human colon segments (ascending, descending, and sigmoid colon) were obtained from fully informed patients undergoing surgery for colon carcinoma and were analyzed anonymously. Patient written consent was obtained, according to the French bioethics law. None of the patients had undergone radiotherapy or chemotherapy. According to the pathologist's examination rules for the longitudinally bisected colon, a healthy segment of tissue, which was distant from the tumor region and devoid of metastatic cells, was removed. Tissues were processed according to the French Government guidelines for research on human tissues and the French Bioethics Act with the authorization no RBM 2009-50.
Fixation and staining procedures. For microscopy studies, purified or cultured cells and polymerized lactoferrin were resuspended onto 24-well plates containing 12 mm coverslips in RMPI 1640+10 mM Hepes (when cultured in the autologous plasma) and centrifuged at 300×g for 10 min. Culture media were removed and cells were fixed in 4% Paraformaldehyde (PFA) for two hours. Fixed cells were washed three times in PBS+0.1% saponin (Sigma-Aldrich), prior immunolabeling with primary antibodies in the same buffer for 1 hour (Triton 0.1% can alternatively be used for cell permeabilization). After three additional washes in PBS+0.1% saponin, secondary antibodies and fluorescent markers were incubated for one hour. […]
(§2) Antibodies, fluorescent markers. For immunofluorescence assay, lactoferrin was detected with a mouse anti-lactoferrin primary monoclonal antibody (Hycult biotech, clone 265-1K1, 1:50 dilution) and an anti-mouse-FITC conjugated secondary antibody (1:1000). Nuclei were detected with DAPI (Life Technologies), Lyophilized MUB40 peptides (MUB40#1 (SEQ ID NO: 3)-Cy5, MUB40#2 (SEQ ID NO: 4)-Cy5, MUB40#3 (SEQ ID NO: 5)-Cy5, MUB40#4 (SEQ ID NO: 6)-Cy5, MUB40#1 (SEQ ID NO: 3)-Dylight, RI-MUB40 (SEQ ID NO: 2)-Cy5, and RI-MUB40 (SEQ ID NO: 2)-Biotin) were solubilized in a phosphate buffer pH8 at a 1 mg/mL concentration and used at a 1:1000 dilution. […]

[5] = system: living human neutrophils; test: Live microscopy of neutrophils infected with Shigella flexneri; type: cell-based; details: live cells
Experimental: Neutrophil infection. Human purified neutrophils were cultured in glass-bottom dishes (Mattek) for live fluorescent microscopy in a RMPI 1640 (Life Technologies) culture medium supplemented with 10% of heat inactivated Human Serum (Sigma-Aldrich). Neutrophils (5.10^5 cell/mL in 2 mL) were infected with exponentially-grown Shigella flexneri 5a pGFP at a Multiplicity Of Infection (MOI) 20 in RMPI 1640 (Life Technologies) culture medium supplemented with 10 mM Hepes (Life Technologies) at 37° C. Infected neutrophils were centrifuged at 2000 rpm for 10 min prior imaging.
Live epifluorescence microscopy. Viable neutrophils infected with S. flexneri pGFP were imaged on a Definite focus live microscope (Zeiss) equipped with a temperature control chamber (37° C.) and a 63× oil immersion objective. Images were acquired every 60 s. Z-stack images were taken with […] step-size increments. Obtained Z-stack images were processed with Fiji software to generate a Movie and the corresponding extracted images are shown in FIG. 16a.

[6] = system: Colonic goblet cell granules; test: Fluorescent labelling of colonic goblet cell granules on fixed slides; type: cell-based, human; details: 1 μg/mL
Experimental: as §1, §2

[7] = Coïc et al., 2012; cited from earlier work

Molecule	relative masses estimated from standard proteins' elution volume [1]	experimental Mr [1] [kDa]	oligomeric organization [1]	also measured
MUB40#4: overlapping 40-amino acid peptide covering the MUB70 sequence (CVHVQYIDGETDQMLRQDDLDGYTDETIPYSTAEGIKKFEG; MUB40-4 probe with Cysteine at N terminal extremity)	20.4	20.4	tetramers	
MUB40#3: overlapping 40-amino acid peptide covering the MUB70 sequence (CDQMLRQDDLDGYTDETIPYSTAEGIKKFEGDGYELFKDNF; MUB40-3 probe with Cysteine at N terminal extremity)	20.5	20.5	tetramers	
MUB40#1: 40-amino acid L-peptide, MUB70 C-terminal part, with N-ter added cysteine; L counterpart of RI-MUB40 (CTAEGIKKFEGDGYELFKDNFPAGEKFDNDDTNDQFYTVIF; MUB40-1 probe with Cysteine at N-terminal extremity)	15.9	15.9	trimer	degradation by trypsin (in words) ([2]; listed as MUB40): rapidly degraded; degradation by trypsin (in words) ([2]; listed as MUB40 #1): almost completely degraded within 3 h; labelling of colonic mucinous carcinoma [3]: similarly labelled
MUB40#2: overlapping 40-amino acid peptide covering the MUB70 sequence (CGYTDETIPYSTAEGIKKFEGDGYELFKDNFPAGEKFDNDD; MUB40-2 probe with Cysteine at N-terminal extremity)	22.0	22.0	tetramers	
CC[C@@H](C)[C@@H](NC(=O)[C@@H](CCCCN)NC(=O)[C@@H](CCCCN)NC(=O)[C@@H](Cc1ccccc1)NC(=O)[C@@H](CCC(=O)O)NC(=O)CNC(=O)[C@@H](CC(=O)O)NC(=O)CNC(=O)[C@@H](Cc1ccc(O)cc1)NC(=O)[C@@H](CCC(=O)O)NC(=O)[C@@H](CC(C)C)NC(=O)[C@@H](Cc1ccccc1)NC(=O)[C@@H](CCCCN)NC(=O)[C@@H](CC(=O)O)NC(=O)[C@@H](CC(N)=O)NC(=O)[C@@H](Cc1ccccc1)NC(=O)[C@H]1CCCN1C(=O)[C@@H](C)NC(=O)CNC(=O)[C@@H](CCC(=O)O)NC(=O)[C@@H](CCCCN)NC(=O)[C@@H](Cc1ccccc1)NC(=O)[C@@H](CC(=O)O)NC(=O)[C@@H](CC(N)=O)NC(=O)[C@@H](CC(=O)O)NC(=O)[C@@H](CC(=O)O)NC(=O)[C@H](NC(=O)[C@@H](CC(N)=O)NC(=O)[C@@H](CC(=O)O)NC(=O)[C@@H](CCC(N)=O)NC(=O)[C@@H](Cc1ccccc1)NC(=O)[C@@H](Cc1ccc(O)cc1)NC(=O)[C@H](NC(=O)[C@H](NC(=O)[C@H](NC(=O)[C@@H](Cc1ccccc1)NC(=O)[C@@H](CS)NC(C)=O)[C@H](C)CC)C(C)C)[C@H](C)O)[C@H](C)O)C(=O)NCC(=O)N[C@H](CCC(=O)O)C(=O)N[C@H](C)C(=O)N[C@@H](C(N)=O)[C@H](C)O [RI-MUB40]				labelling of / binding to human colonic mucus [4]: validated; crossing of plasma membrane of living cells [5]: do not cross plasma membranes
B1				labelling of colonic goblet cell granules [6]: not the case
B2				oligomeric organization [7]: trimer
